From publication PMC10234410, “Regulation of intestinal stem cell activity by a mitotic cell cycle regulator Polo in Drosophila” come the findings set out here.

This data set has as its target Sox21aHMG-BD (Drosophila melanogaster, UniProt M9PFG6 108-208). In words: EMSA; 25 mM HEPES pH 7.5, 40 mM KCl, 3 mM DTT, 10% glycerol, 0.1 mM EDTA, 0.5 mg/ml BSA, 0.5 mg/ml poly-glutamate, 25 C, 30 min; 6% native PAGE. To be noted: protein: recombinant; tags: His-tag at C-terminus (pET-28b); label: Cy5. For orientation: A gel shift assay detects complexes by their altered migration in electrophoresis.

Chain of Sox21aHMG-BD (M9PFG6 entry or part of it): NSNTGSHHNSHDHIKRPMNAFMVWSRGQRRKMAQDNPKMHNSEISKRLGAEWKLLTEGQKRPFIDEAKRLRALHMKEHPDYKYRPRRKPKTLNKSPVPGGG

B1: F2-4-3 wild-type probe (dsDNA)
DNA 1: GAATTTGTTGTTCAACACTCAACAAAATACCGCGATACATACCAGAAAGTGTGCGATAGC
DNA 2: GCTATCGCACACTTTCTGGTATGTATCGCGGTATTTTGTTGAGTGTTGAACAACAAATTC
Consider B1, for which the binding result is listed as “binds”.

B2: F2-4-3 mutant probe (dsDNA)
DNA 1: GAACGCACGAGCAGACACTCAACAAAATACCGCGATACATACCAGAAAGTGTGCGATAGC
DNA 2: GCTATCGCACACTTTCTGGTATGTATCGCGGTATTTTGTTGAGTGTCTGCTCGTGCGTTC
B2: the binding result is reported as “no binding”.
